Source: patent US20240344138A1, “TARGETED THERAPIES IN CANCER” (Feng Biosciences, Inc, priority 2021, published 2024)

Columns and labels:
Assay type in all cases: in vivo, human
[1] = test system: advanced colorectal cancers metastatic to liver (mCRC); assay: Phase 2 trial of navicixizumab, innate immune activating agent and PD-(L)1 agent (3L+), outcome by TME phenotype; design: mPFS: unit not given beside the values; conditions: 3L+ mCRC
Text: A phase 2 clinical trial is run to determine clinical benefit in patients with advanced colorectal cancers metastatic to liver (mCRC) treated with a triplet combination of navicixizumab, an innate immune activating agent, and a PD-(L)1 agent. In this setting, regorafenib or trifluoridine/tipiracil therapy typically yield a median PFS (mPFS) of ˜2 months and median OS (mOS) of ˜7 months. […] The analysis includes enrollment of 60 patients with prospectively defined, retrospective analysis of liver metastatic lesions by the classifying the TME phenotypes as A, IA, IS or ID.
MSS+ advanced colorectal cancer patients (3L+) with liver metastases are treated with the triplet combination of navicixizumab, an anti-PD(L)1 therapy and an innate immune stimulating agent, such as the Dectin agonist Imprime PGG, the STING agonist BMS-986301 and the NLR agonist BMS-986299. ORR, mPFS, 3-month PFS rate, mOS and OS rate at 9 months are assessed across all TME phenotypes. […] patients received a greater clinical benefit than the standard of care for 3L+ mCRC with regorafenib or trifluoridine/tipiracil.

[2] = test system: advanced metastatic hepatocellular carcinoma; assay: Single arm phase 2 first-line trial of bavituximab and immune checkpoint inhibitor, outcome by TME phenotype; design: 6 month progression-free survival (6-month PFS): concentration or dose not given beside the values
Experimental: (§1) A single arm phase 2 clinical trial is run to determine whether advanced metastatic hepatocellular carcinoma tumor microenvironment phenotypes correlate to clinical responses when patients are treated with Bavituximab and an immune checkpoint inhibitor in the first-line setting. The analysis includes samples from 28 patients. RNA gene signatures are analyzed from tumor samples acquired before any treatments and TME phenotypes are determined. Patients are followed for clinical response, progression-free survival, and overall survival.
(§2) Hepatocellular carcinoma patients receive a regimen of Bavituximab plus an immune checkpoint inhibitor (anti-PD-(L)1—i.e., an inhibitor to PD-1 or PD-L1) therapy. […] Twenty-eight (28) patients are enrolled, with equal representation across the 4 stromal phenotypes (7 in each phenotype). The correlation between each TME phenotype is tested against clinical outcome data. In patients that are biomarker positive, represented by immune active (IA) and immune suppressed (IS) phenotypes, the use of the regimen of Bavituximab/immune checkpoint inhibitor confers benefit in comparison to patients classified as biomarker negative, comprised of angiogenic (A) and immune desert (ID) TME phenotype classes, as shown in the TABLE 31.

[3] = test system: recurrent/metastatic squamous carcinoma of head and neck (HNSCC); assay: Single arm phase 2 trial of bavituximab and immune checkpoint inhibitor after progression on an immune checkpoint inhibitor, outcome by TME phenotype
Experimental: as §1, with “recurrent/metastatic squamous” for “advanced metastatic hepatocellular”, “carcinoma of head and neck (HNSCC)” for “carcinoma”, “following progression on an immune checkpoint inhibitor (e.g., nivolumab, pembrolizumab, durvalumab, atezolizumab, etc.).” for “in the first-line setting.”
as §2, with “HNSCC” for “Hepatocellular carcinoma”, “In” for “In patients that are”, “positive patients,” for “positive,”, “32.” for “31.”

[4] = test system: metastatic gliomas and glioblastoma; assay: Clinical trial of radiation, bavituximab and a checkpoint inhibitor, best objective response versus TME biomarker status
Experimental: A clinical trial is run to treat metastatic gliomas and glioblastoma with a combination of radiation, the anti-phosphatidylserine (anti-PS) targeting antibody bavituximab, and a checkpoint inhibitor (CPI), such as a PD-(L)1, e.g. pembrolizumab or nivolumab. Tumor tissue samples from surgical resections of glioblastoma are RNA sequenced and TME phenotypes are determined. Patients are followed for ORR.

B1: navicixizumab, an anti-PD(L)1 therapy and an innate immune stimulating agent (antibody, chains of the INN, looked up, V domains shown)
VH: QVQLVQSGAEVKKPGASVKISCKASGYSFTAYYIHWVKQAPGQGLEWIGYISNYNRATNYNQKFKGRVTFTTDTSTSTAYMELRSLRSDDTAVYYCARDYDYDVGMDYWGQGTLVTVSS
VL: DIVMTQSPDSLAVSLGERATISCRASESVDNYGISFMKWFQQKPGQPPKLLIYAASNQGSGVPDRFSGSGSGTDFTLTISSLQAEDVAVYYCQQSKEVPWTFGGGTKVEIK
VH2: QVQLVQSGAEVKKPGASVKVSCKASGYTFTNYWMHWVRQAPGQGLEWMGDINPSNGRTSYKEKFKRRVTLSVDKSSSTAYMELSSLRSEDTAVYFCTIHYDDKYYPLMDYWGQGTLVTVSS
VL2: B1 VL
modifications: with anti-PD(L)1 and innate immune stimulant
- ORR ([1]; TME phenotype A (n = 12)): 25%
- PFS rate (3 month) ([1]; TME phenotype A (n = 12)): 30%
- mOS ([1]; TME phenotype A (n = 12)): 12 mos
- mPFS ([1]; TME phenotype A (n = 12)): 6
- ORR ([1]; TME phenotype IA (n = 12)): 35%
- OS rate (9 month) ([1]; TME phenotype IA (n = 12)): 50%
- PFS rate (3 month) ([1]; TME phenotype IA (n = 12)): 30%
- mOS ([1]; TME phenotype IA (n = 12)): 12 mos
- mPFS ([1]; TME phenotype IA (n = 12)): 6
- ORR ([1]; TME phenotype ID (n = 24)): 20%
- OS rate (9 month) ([1]; TME phenotype ID (n = 24)): 40%
- PFS rate (3 month) ([1]; TME phenotype ID (n = 24)): 30%
- mOS ([1]; TME phenotype ID (n = 24)): 10 mos
- mPFS ([1]; TME phenotype ID (n = 24)): 4
- ORR ([1]; TME phenotype IS (n = 12)): 30%
- OS rate (9 month) ([1]; TME phenotype IS (n = 12)): 45%
- PFS rate (3 month) ([1]; TME phenotype IS (n = 12)): 30%
- mOS ([1]; TME phenotype IS (n = 12)): 11 mos
- mPFS ([1]; TME phenotype IS (n = 12)): 5

B2: Bavituximab/immune checkpoint inhibitor: bavituximab plus an immune checkpoint inhibitor (anti-PD-(L)1) (antibody, chains of the INN, looked up, V domains shown)
VH: EVQLQQSGPELEKPGASVKLSCKASGYSFTGYNMNWVKQSHGKSLEWIGHIDPYYGDTSYNQKFRGKATLTVDKSSSTAYMQLKSLTSEDSAVYYCVKGGYYGHWYFDVWGAGTTVTVSS
VL: DIQMTQSPSSLSASLGERVSLTCRASQDIGSSLNWLQQGPDGTIKRLIYATSSLDSGVPKRFSGSRSGSDYSLTISSLESEDFVDYYCLQYVSSPPTFGAGTKLELK
modifications: plus immune checkpoint inhibitor
- 6 month progression-free survival (6-month PFS) ([2]; all patients, first-line): ~57.2%
- Overall response rate (ORR) ([2]; all patients, first-line): ~32%
- overall survival (OS) ([2]; all patients, first-line): ~20 months

B3: Bavituximab plus immune checkpoint inhibitor (antibody, chains of the INN, looked up, V domains shown)
VH: B2 VH
VL: B2 VL
modifications: plus immune checkpoint inhibitor
- Overall response rate (ORR) ([3]; Biomarker Negative (n = 14)): 14.3%
- overall survival (OS) ([3]; Biomarker Negative (n = 14)): 7.8 months
- progression free survival (PFS) ([3]; Biomarker Negative (n = 14)): 2.5 months
- Overall response rate (ORR) ([3]; Biomarker Positive (n = 14)): 36.4%
- overall survival (OS) ([3]; Biomarker Positive (n = 14)): 11.2 months
- progression free survival (PFS) ([3]; Biomarker Positive (n = 14)): 5.5 months
- Overall response rate (ORR) ([3]; TME phenotype A (n = 7)): 14.3%
- overall survival (OS) ([3]; TME phenotype A (n = 7)): 8.6 months
- progression free survival (PFS) ([3]; TME phenotype A (n = 7)): 2.6 months
- Overall response rate (ORR) ([3]; TME phenotype IA (n = 7)): 28.6%
- overall survival (OS) ([3]; TME phenotype IA (n = 7)): 11.0 months
- progression free survival (PFS) ([3]; TME phenotype IA (n = 7)): 5.3 months
- Overall response rate (ORR) ([3]; TME phenotype ID (n = 7)): 14.3%
- overall survival (OS) ([3]; TME phenotype ID (n = 7)): 7.0 months
- progression free survival (PFS) ([3]; TME phenotype ID (n = 7)): 2.4 months
- Overall response rate (ORR) ([3]; TME phenotype IS (n = 7)): 42.9%
- overall survival (OS) ([3]; TME phenotype IS (n = 7)): 11.4 months
- progression free survival (PFS) ([3]; TME phenotype IS (n = 7)): 5.7 months
- 6-month progression free survival (PFS) rate ([2]; Biomarker Negative (n = 14)): 35.7%
- Overall response rate (ORR) ([2]; Biomarker Negative (n = 14)): 14%
- overall survival (OS) ([2]; Biomarker Negative (n = 14)): 16.2 months
- 6-month progression free survival (PFS) rate ([2]; Biomarker Positive (n = 14)): 78.6%
- Overall response rate (ORR) ([2]; Biomarker Positive (n = 14)): 50%
- overall survival (OS) ([2]; Biomarker Positive (n = 14)): 23.8 months
- 6-month progression free survival (PFS) rate ([2]; TME phenotype A (n = 7)): 42.8%
- Overall response rate (ORR) ([2]; TME phenotype A (n = 7)): 14%
- overall survival (OS) ([2]; TME phenotype A (n = 7)): 16.7 months
- 6-month progression free survival (PFS) rate ([2]; TME phenotype IA (n = 7)): 71.4%
- Overall response rate (ORR) ([2]; TME phenotype IA (n = 7)): 43%
- overall survival (OS) ([2]; TME phenotype IA (n = 7)): 22.4 months
- 6-month progression free survival (PFS) rate ([2]; TME phenotype ID (n = 7)): 28.6%
- Overall response rate (ORR) ([2]; TME phenotype ID (n = 7)): 14%
- overall survival (OS) ([2]; TME phenotype ID (n = 7)): 15.7 months
- 6-month progression free survival (PFS) rate ([2]; TME phenotype IS (n = 7)): 85.7%
- Overall response rate (ORR) ([2]; TME phenotype IS (n = 7)): 57%
- overall survival (OS) ([2]; TME phenotype IS (n = 7)): 25.2 months

B4: bavituximab, checkpoint inhibitor, and radiation (antibody, chains of the INN, looked up, V domains shown)
VH: B2 VH
VL: B2 VL
modifications: with checkpoint inhibitor and radiation
- Best Objective Response CR, number of patients ([4]; TME A): 0
- Best Objective Response PD, number of patients ([4]; TME A): 4
- Best Objective Response PR, number of patients ([4]; TME A): 1
- Best Objective Response SD, number of patients ([4]; TME A): 1
- Best Objective Response CR, number of patients ([4]; TME IA): 0
- Best Objective Response PD, number of patients ([4]; TME IA): 4
- Best Objective Response PR, number of patients ([4]; TME IA): 3
- Best Objective Response SD, number of patients ([4]; TME IA): 2
- Best Objective Response CR, number of patients ([4]; TME ID): 0
- Best Objective Response PD, number of patients ([4]; TME ID): 6
- Best Objective Response PR, number of patients ([4]; TME ID): 1
- Best Objective Response SD, number of patients ([4]; TME ID): 1
- Best Objective Response CR, number of patients ([4]; TME IS): 0
- Best Objective Response PD, number of patients ([4]; TME IS): 4
- Best Objective Response PR, number of patients ([4]; TME IS): 4
- Best Objective Response SD, number of patients ([4]; TME IS): 4
